In the supplement of paper PMC9112550, “Optimization of the antimicrobial peptide Bac7 by deep mutational scanning” (BMC Biology, 2022):

Test system: Escherichia coli TOP10
Assay: shrunken log2 fold change of peptide-encoding DNA abundance (4.5 h post-induction vs induction); higher = less antimicrobial activity (less host growth inhibition)
Settings: time post-induction: 4.5 h; library: site-saturation at positions 5, 18, 19, 20
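Further: peptides expressed intracellularly from a pBAD plasmid library in pooled LB shake-flask culture, induced with 0.3% L-arabinose, DNA abundance read by NGS, three biological replicates, DESeq2 with apeglm shrinkage.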

Row | Sequence | shrunken log2 fold change
1 | RRIRHRPPRLPRPRPRPTGTPRP | -0.0618
2 | RRIRWRPPRLPRPRPRPIVRPRP | 0.326
3 | RRIRARPPRLPRPRPRPANFPRP | 0.137
4 | RRIRFRPPRLPRPRPRPGCFPRP | 0.0214
5 | RRIRVRPPRLPRPRPRPMDFPRP | -0.205
6 | RRIRTRPPRLPRPRPRPHVQPRP | -0.156
7 | RRIRKRPPRLPRPRPRPRKEPRP | 0.015
8 | RRIRERPPRLPRPRPRPKHTPRP | -0.127
9 | RRIRGRPPRLPRPRPRPWRNPRP | 0.297
10 | RRIRIRPPRLPRPRPRPHTNPRP | -0.906
11 | RRIRPRPPRLPRPRPRPDQEPRP | -0.151
12 | RRIRNRPPRLPRPRPRPHCQPRP | -0.861
13 | RRIRARPPRLPRPRPRPMEYPRP | -0.154
14 | RRIRWRPPRLPRPRPRPIPKPRP | 0.102
15 | RRIRERPPRLPRPRPRPGAKPRP | 0.188
16 | RRIRERPPRLPRPRPRPKATPRP | 0.205
17 | RRIRHRPPRLPRPRPRPKGHPRP | -0.311
18 | RRIRYRPPRLPRPRPRPLTGPRP | -0.023
19 | RRIRTRPPRLPRPRPRPLRGPRP | 0.897
20 | RRIRVRPPRLPRPRPRPCRYPRP | 0.0933
21 | RRIRNRPPRLPRPRPRPVNPPRP | -0.216
22 | RRIRPRPPRLPRPRPRPIVSPRP | -0.117
23 | RRIRRRPPRLPRPRPRPKYGPRP | -0.000734
24 | RRIRQRPPRLPRPRPRPKILPRP | -0.0155
25 | RRIRIRPPRLPRPRPRPASMPRP | -0.281

Row | Sequence | shrunken log2 fold change
26 | RRIRKRPPRLPRPRPRPNLPPRP | 0.118
27 | RRIRKRPPRLPRPRPRPPIDPRP | 0.185
28 | RRIRIRPPRLPRPRPRPRTYPRP | -0.726
29 | RRIRGRPPRLPRPRPRPTCMPRP | 0.879
30 | RRIRNRPPRLPRPRPRPWIWPRP | -0.151
31 | RRIRCRPPRLPRPRPRPLKAPRP | -0.249
32 | RRIRPRPPRLPRPRPRPEGMPRP | 0.305
33 | RRIRIRPPRLPRPRPRPSNCPRP | -0.24
34 | RRIRDRPPRLPRPRPRPPFPPRP | 0.206
35 | RRIRKRPPRLPRPRPRPETKPRP | 0.106
36 | RRIRYRPPRLPRPRPRPDWPPRP | -0.0212
37 | RRIRQRPPRLPRPRPRPEINPRP | -0.15
38 | RRIRHRPPRLPRPRPRPVYNPRP | -0.303
39 | RRIRSRPPRLPRPRPRPCDYPRP | -0.238
40 | RRIRNRPPRLPRPRPRPNRQPRP | -0.156
41 | RRIRLRPPRLPRPRPRPTGSPRP | -0.0138
42 | RRIRARPPRLPRPRPRPGDYPRP | 0.226
43 | RRIRPRPPRLPRPRPRPNMSPRP | -0.485
44 | RRIRKRPPRLPRPRPRPSNEPRP | -0.183
45 | RRIRWRPPRLPRPRPRPWLDPRP | -0.231
46 | RRIRQRPPRLPRPRPRPAKRPRP | 0.0228
47 | RRIRARPPRLPRPRPRPRYHPRP | -0.135
48 | RRIRDRPPRLPRPRPRPHARPRP | 0.0493
49 | RRIRARPPRLPRPRPRPSYNPRP | -0.428
50 | RRIRHRPPRLPRPRPRPFMRPRP | -0.42

Row | Sequence | shrunken log2 fold change
51 | RRIRGRPPRLPRPRPRPDFRPRP | -0.043
52 | RRIRKRPPRLPRPRPRPNQTPRP | 0.00514
53 | RRIRLRPPRLPRPRPRPCTWPRP | 0.0461
54 | RRIRFRPPRLPRPRPRPCACPRP | -0.0607
55 | RRIRQRPPRLPRPRPRPCWLPRP | 0.0947
56 | RRIRIRPPRLPRPRPRPEHGPRP | -0.0885
57 | RRIRLRPPRLPRPRPRPNLFPRP | -0.0622
58 | RRIRPRPPRLPRPRPRPQTRPRP | 0.227
59 | RRIRTRPPRLPRPRPRPPVHPRP | 0.0813
60 | RRIRDRPPRLPRPRPRPEKDPRP | 0.194
61 | RRIRSRPPRLPRPRPRPSNRPRP | -0.114
62 | RRIRDRPPRLPRPRPRPCKKPRP | -0.00395
63 | RRIRNRPPRLPRPRPRPPSMPRP | -0.0213
64 | RRIRHRPPRLPRPRPRPHWQPRP | -0.00133
65 | RRIRCRPPRLPRPRPRPHYTPRP | -0.311
66 | RRIRFRPPRLPRPRPRPSGQPRP | -0.204
67 | RRIRGRPPRLPRPRPRPDFWPRP | 0.593
68 | RRIRQRPPRLPRPRPRPNLNPRP | -0.221
69 | RRIRPRPPRLPRPRPRPDMYPRP | -0.192
70 | RRIRNRPPRLPRPRPRPLMVPRP | -0.254
71 | RRIRVRPPRLPRPRPRPAGEPRP | 0.339
72 | RRIRKRPPRLPRPRPRPRGRPRP | 1.04
73 | RRIRHRPPRLPRPRPRPPFIPRP | -0.483
74 | RRIRDRPPRLPRPRPRPEGDPRP | 0.502
75 | RRIRPRPPRLPRPRPRPYQFPRP | -0.114
